{"source": "paper PMC7900517", "about": "“PIP2 promotes conformation-specific dimerization of the EphA2 membrane region” (The Journal of Biological Chemistry, 2020)", "key": {"[1]": {"biological_target": "the molecule itself", "assay": "single-molecule photobleaching (TIRF) in SMALPs; Alexa Fluor 488-TMJM in 22:1 PC or 14:1 PC SMALPs with 3% biotin-PE, ± 3% PIP2 or 10% POPS, ± 1 mM Ca2+; lipid-to-peptide ratio 300:1; SMALPs (20 to 30 nM peptide) immobilised on PEGylated slides via biotin-streptavidin; SMALP buffer 19.3 mM HEPES, 150 mM NaCl, 1 mM EGTA; photobleaching steps counted for each SMALP"}, "[2]": {"biological_target": "the molecule itself", "assay": "cross-linking; disulfide cross-linking through the C-terminal Cys; unlabeled TMJM in 14:1 PC or 22:1 PC liposomes ± 3% PIP2, lipid-to-peptide ratio 300:1; 19.3 mM HEPES, 1 mM EGTA, shaken 3 h at room temperature (19-21 °C); non-reducing SDS-PAGE (16% tricine gel), silver stain"}}, "note": "Ends that are not written are not given here. Alexa Fluor 488 = fluorescent dye attached through a C5 maleimide linker to the added cysteine", "data": [{"protein": "GSGNLAVIGGVAVGVVLLLVLAGVGFFIHRRRKC(Alexa Fluor 488)WN (also: Alexa Fluor 488 (C5 maleimide) on the added C-terminal cysteine, EphA2 residues 531 to 563: a short stretch of extracellular residues, the TMD and the first five JM residues (HRRRK); added residues at the C terminus: a cysteine for dye conjugation and a tryptophan as fluorescent reporter; Reconstituted in 14:1 PC or 22:1 PC bilayers with 3% biotin-PE and solubilised as SMALPs; also called Alexa Fluor 488 labeled TMJM peptide; source: synthetic peptide (F-moc …))", "note": "[TMJM peptide labeled with Alexa Fluor 488]", "values": [{"measurement": "stoichiometry N", "setting": "[1]", "result": 2}]}, {"protein": "GSGNLAVIGGVAVGVVLLLVLAGVGFFIHRRRKCWN (EphA2 residues 531 to 563: a short stretch of extracellular residues, the TMD and the first five JM residues (HRRRK); added residues at the C terminus; the free cysteine forms the disulfide in the cross-linking experiment; Free Cys at the JM end; also called unlabeled TMJM; source: synthetic peptide (F-moc chemistry, Thermo Fisher))", "note": "[TMJM peptide (unlabeled)]", "values": [{"measurement": "binding result", "setting": "[2]", "result": "binds"}]}]}
